In the RNAGym collection of RNA variant scans (doi:10.1021/acssynbio.7b00057):

B1: Pistol ribozyme (parent)
chain: GGGUCGUUGUUCCAUAAUCGCGUGGAUAUGGCACGCAAGUUUCUACCGGGCACCGUAAAUGUCCGACUGGAGCCGUUCGGGCGGCUAUAAACAGACCUCAGGCCCGAAGCGUGGCGGCACCUGCCGCCGGUGGUAAAAAAGAUCGGAAGAGCACACGUCU

Variants of: B1
Test: aptazyme ON/OFF ratio, guanine; higher = stronger switching; co-transcriptional cleavage with and without guanine

GGGUCGGAAGACAAUAAUCGCGUGGAUAUGGCACGCAAGUUUCUACCGGGCACCGUAAAUGUCCGACUGGAGCCGUUCGGGCGGCUAUAAACAGACCUCAGGCCCGAAGCGUGGCGGCACCUGCCGCCGGUGGUAAAAAAGAUCGGAAGAGCACACGUCU [U7G U8A G9A U10G U11A C13A] and GGGUCGGAAGACGAUAAUCGCGUGGAUAUGGCACGCAAGUUUCUACCGGGCACCGUAAAUGUCCGACUGGAGCCGUUCGGGCGGCUAUAAACAGACCUCAGGCCCGAAGCGUGGCGGCACCUGCCGCCGGUGGUAAAAAAGAUCGGAAGAGCACACGUCU [U7G U8A G9A U10G U11A C13G] are the same in “aptazyme ON/OFF ratio” value: 1.06 for the first, 1.06 for the second.

Going from GGGUCGGAAGGAAAUAAUCGCGUGGAUAUGGCACGCAAGUUUCUACCGGGCACCGUAAAUGUCCGACUGGAGCCGUUCGGGCGGCUAUAAACAGACCUCAGGCCCGAAGCGUGGCGGCACCUGCCGCCGGUGGUAAAAAAGAUCGGAAGAGCACACGUCU [U7G U8A G9A U10G U11G C12A C13A] to GGGUCGGAAGGAUAUAAUCGCGUGGAUAUGGCACGCAAGUUUCUACCGGGCACCGUAAAUGUCCGACUGGAGCCGUUCGGGCGGCUAUAAACAGACCUCAGGCCCGAAGCGUGGCGGCACCUGCCGCCGGUGGUAAAAAAGAUCGGAAGAGCACACGUCU [U7G U8A G9A U10G U11G C12A C13U], the “aptazyme ON/OFF ratio” value rises from 1.06 to 1.17.

GGGUCGGAAGGAGAUAAUCGCGUGGAUAUGGCACGCAAGUUUCUACCGGGCACCGUAAAUGUCCGACUGGAGCCGUUCGGGCGGCUAUAAACAGACCUCAGGCCCGAAGCGUGGCGGCACCUGCCGCCGGUGGUAAAAAAGAUCGGAAGAGCACACGUCU [U7G U8A G9A U10G U11G C12A C13G] and GGGUCGGAAGAGUAUAAUCGCGUGGAUAUGGCACGCAAGUUUCUACCGGGCACCGUAAAUGUCCGACUGGAGCCGUUCGGGCGGCUAUAAACAGACCUCAGGCCCGAAGCGUGGCGGCACCUGCCGCCGGUGGUAAAAAAGAUCGGAAGAGCACACGUCU [U7G U8A G9A U10G U11A C12G C13U] are the same in “aptazyme ON/OFF ratio” value: 1.14 for the first, 1.14 for the second.

First: GGGUCGGAAGCGGAUAAUCGCGUGGAUAUGGCACGCAAGUUUCUACCGGGCACCGUAAAUGUCCGACUGGAGCCGUUCGGGCGGCUAUAAACAGACCUCAGGCCCGAAGCGUGGCGGCACCUGCCGCCGGUGGUAAAAAAGAUCGGAAGAGCACACGUCU [U7G U8A G9A U10G U11C C12G C13G]
Second: GGGUCGGAAGCGUAUAAUCGCGUGGAUAUGGCACGCAAGUUUCUACCGGGCACCGUAAAUGUCCGACUGGAGCCGUUCGGGCGGCUAUAAACAGACCUCAGGCCCGAAGCGUGGCGGCACCUGCCGCCGGUGGUAAAAAAGAUCGGAAGAGCACACGUCU [U7G U8A G9A U10G U11C C12G C13U]
The “aptazyme ON/OFF ratio” value of the first is lower: 1.04 for the first, 1.11 for the second.

Going from GGGUCGGAAGCGAAUAAUCGCGUGGAUAUGGCACGCAAGUUUCUACCGGGCACCGUAAAUGUCCGACUGGAGCCGUUCGGGCGGCUAUAAACAGACCUCAGGCCCGAAGCGUGGCGGCACCUGCCGCCGGUGGUAAAAAAGAUCGGAAGAGCACACGUCU [U7G U8A G9A U10G U11C C12G C13A] to GGGUCGGAAGGGAAUAAUCGCGUGGAUAUGGCACGCAAGUUUCUACCGGGCACCGUAAAUGUCCGACUGGAGCCGUUCGGGCGGCUAUAAACAGACCUCAGGCCCGAAGCGUGGCGGCACCUGCCGCCGGUGGUAAAAAAGAUCGGAAGAGCACACGUCU [U7G U8A G9A U10G U11G C12G C13A], the “aptazyme ON/OFF ratio” value rises from 1.1 to 1.27.

Going from GGGUCGGAAGGGUAUAAUCGCGUGGAUAUGGCACGCAAGUUUCUACCGGGCACCGUAAAUGUCCGACUGGAGCCGUUCGGGCGGCUAUAAACAGACCUCAGGCCCGAAGCGUGGCGGCACCUGCCGCCGGUGGUAAAAAAGAUCGGAAGAGCACACGUCU [U7G U8A G9A U10G U11G C12G C13U] to GGGUCGGAAGGGGAUAAUCGCGUGGAUAUGGCACGCAAGUUUCUACCGGGCACCGUAAAUGUCCGACUGGAGCCGUUCGGGCGGCUAUAAACAGACCUCAGGCCCGAAGCGUGGCGGCACCUGCCGCCGGUGGUAAAAAAGAUCGGAAGAGCACACGUCU [U7G U8A G9A U10G U11G C12G C13G], the “aptazyme ON/OFF ratio” value falls from 1.26 to 1.16.

First: GGGUCGGAAGCCGAUAAUCGCGUGGAUAUGGCACGCAAGUUUCUACCGGGCACCGUAAAUGUCCGACUGGAGCCGUUCGGGCGGCUAUAAACAGACCUCAGGCCCGAAGCGUGGCGGCACCUGCCGCCGGUGGUAAAAAAGAUCGGAAGAGCACACGUCU [U7G U8A G9A U10G U11C C13G]
Second: GGGUCGGAAGCCUAUAAUCGCGUGGAUAUGGCACGCAAGUUUCUACCGGGCACCGUAAAUGUCCGACUGGAGCCGUUCGGGCGGCUAUAAACAGACCUCAGGCCCGAAGCGUGGCGGCACCUGCCGCCGGUGGUAAAAAAGAUCGGAAGAGCACACGUCU [U7G U8A G9A U10G U11C C13U]
The “aptazyme ON/OFF ratio” value of the first is higher: 1.08 for the first, 1.05 for the second.

First: GGGUCGGAAGCCAAUAAUCGCGUGGAUAUGGCACGCAAGUUUCUACCGGGCACCGUAAAUGUCCGACUGGAGCCGUUCGGGCGGCUAUAAACAGACCUCAGGCCCGAAGCGUGGCGGCACCUGCCGCCGGUGGUAAAAAAGAUCGGAAGAGCACACGUCU [U7G U8A G9A U10G U11C C13A]
Second: GGGUCGGAAGAUGAUAAUCGCGUGGAUAUGGCACGCAAGUUUCUACCGGGCACCGUAAAUGUCCGACUGGAGCCGUUCGGGCGGCUAUAAACAGACCUCAGGCCCGAAGCGUGGCGGCACCUGCCGCCGGUGGUAAAAAAGAUCGGAAGAGCACACGUCU [U7G U8A G9A U10G U11A C12U C13G]
The “aptazyme ON/OFF ratio” value of the first is higher: 1.09 for the first, 1.06 for the second.

First: GGGUCGGAAGAUAAUAAUCGCGUGGAUAUGGCACGCAAGUUUCUACCGGGCACCGUAAAUGUCCGACUGGAGCCGUUCGGGCGGCUAUAAACAGACCUCAGGCCCGAAGCGUGGCGGCACCUGCCGCCGGUGGUAAAAAAGAUCGGAAGAGCACACGUCU [U7G U8A G9A U10G U11A C12U C13A]
Second: GGGUCGGAAGAUUAUAAUCGCGUGGAUAUGGCACGCAAGUUUCUACCGGGCACCGUAAAUGUCCGACUGGAGCCGUUCGGGCGGCUAUAAACAGACCUCAGGCCCGAAGCGUGGCGGCACCUGCCGCCGGUGGUAAAAAAGAUCGGAAGAGCACACGUCU [U7G U8A G9A U10G U11A C12U C13U]
The “aptazyme ON/OFF ratio” value of the first is higher: 1.18 for the first, 1.09 for the second.
